Test: soluble on expression in E. coli; label from the status in PepcDB or PDB records

Row | Sequence | soluble on expression in E. coli
1 | MNVIYPLAVPKGRRLCCEVCEAPAERVCAACTVTYYCGVVHQKADWDSIHEKICQLLIPLRTSMPFYNSEEERQHGLQQLQQRQKYLIEFCYTIAQKYLFEGKHEDAVPAALQSLRFRVKLYGLSSVELVPAYLLLAEASLGLGRIVQAEEYLFQAQWTVLKSTDCSNATHSLLHRNLGLLYIAKKNYEEARYHLANDIYFASCAFGTEDIRTSGGYFHLANIFYDLKKLDLADTLYTKVSEIWHAYLNNHYQVLSQAHIQQMDLLGKLFENDTGLDEAQEAEAIRILTSILNIRESTSDKAPQKTIFVLKILVMLYYLMMNSSKAQEYGMRALSLAKEQQLDVHEQSTIQELLSLISTEDHPIT | soluble
2 | MMVYIMNAFDIKSTKMDVLSISLHTSDLFDLEDVLVKLGKKFQESGVVPFVLDVQEFDYPESLDLAALVSLFSRHGMQILGLKHSNERWAAAAMKYHLLFCLSHSENVKELGQVEVQKTEDGQKARKTVLITSPVRTGQQVYAEDGDLIVTGAVSQGAELIADGNIHIYAPMRGRALAGAKGDTSARIFIHSMQAELVSVAGIYRNFEQDLPNHLHKQPVQILLQDNRLVISAIGSE | not soluble
3 | MSLAPFTTNPRRFDPYKNFKFRVKWDGRYVAGISKVGALKRSTEVIEHREGGDPSTGRKSPGRTKYDAISMERGVTHDLDFEQWANKVWNFGAGLGSEVSLADFRKDLIIDVFNEAGQKVMSYQVFRCWVSEYQALPDLDANANAIAIQSMKLENEGWLRDVAVAEPAEPSFTIPAEGHHHHHH | soluble
4 | MTSVTSSATSSPEPPTKVAAAMQTTTGETSISNETSFNASRETSLTALGFLDYLDEEQRAALLGEGLDISTLTWANQVTALRVLESLFNEHAYELVSAVIQHVAQEPGDNPHHFLKFSPEPSTENSWELTLDGPTVGLKVTFDPDGQITFKDAHLGLSPAEVVSVTEALDTSYSESQIKKAAEQLVGSLNPTQQAALQGSGLRGAQLTEEQKTLFLKMTSNWIDLANGDSGSEQQEEIADTFSDTYIIWNEQKDGSAFFQMKGPELDFSYKESVPENAELSARGVPNIQTSFQSPLEHHHHHH | soluble
5 | AHHHHHHGSVRIEVVDIEKPEGVEVIIGQGNFSIFTVDDLARALLTTVPGIKFGIAMNEAKPQLTRYTGNDPELEKLAAKNALKIGAGHVFVILMKNAYPINVLNTIKNHPAVAMVYGASENPFQVIVAETELGRAVIGVVDGKAATKIETEEQKKERRELVEKIGYKID | not soluble
6 | RQPEVRGGDTLNVFLAYVPEDAKAMMTTPFEAYLVNDSNYYLYYTYLSAEGKAWNNRSHGLVEPNTKLLLEEFTKDVLNEMERVAVQLIAFKDGKPAAIKPAVSVELRIDTVKFYKLHTFSASDFFEEPALIYDIVKDDVPAKQVYV | soluble
7 | MGSSHHHHHHGGTGENLYFQGGSGMKSVFITGGNRGIGLETARQMGKLGYYVIISCRDEEKAKAAIEKVSAEGVKADYVIMDVVDESSVAKAAAEVSKKVNGVLDALINNAGKAAPSGDMSRVNLDEMRRCYEVNVIGTVCVTNHFLEMVKKSSAGRIVNVGSIKGSCQLEVTALSHTPYNCSKAALNMYTVNLASSLKDTNVKVNCAHPGWVKTDMGGPQAPLEVTEGAETSVYLATLPADGPTGGFFHKRDRLPW | soluble
8 | PDGQDLAEARQRLDDSLEQAHQQHKALYERLMAYKTQPRMKTWLNELVWAHNQALWDAPTKVLAQGEPDPHLLLTTQLAPELLNTRKELMLISAYFVPGQEGLLYLTGRADAGVNVSLLTNSLEATDVPAVHGGYAPYRKALLEHGVKLYELRRQPGETETMRSSGPHLFRKSHSLVSSESSLHSKAMIFDRQKVFVGSFNFDPRSVLWNTEVGVLVDSPQLAEELRELTLQGMAPSLTYEARLEDGKVVWVTE | soluble
9 | MSLHSLTRIKVLQRRCTVFHSQCESILLRYQDEDRGLQAEEEAILEQIAGLKLLLDTLRAENRQLSREEIYTLLRKQSIVRRQIKDLELQIIQIQEKRSELEKKREEFQKKSKYWLRKEGNYQRWIIRQKRFYIQREIQQEEAESEEIIEGHHHHHH | soluble
10 | MSLNAKTVTELRSALLYMRAEDYHLWVNMGLALRELGETGRGLWMEWSATSEKFDSKDAAKKWNSFKPTGTSYQAVFAEAARHGWVNPGRSDAQLTGRRVQTQLKTSHKIKLEFAMSSDTETAKVSYLVDPFLPCKCVVGFFGRGGTAKSSFLATMAAMISQRASTLWVSAEELTDWIKARHIKTGGAPGTLQVFRGIETDEHSGQHIQVFGVYEHLDAALTMSNVAARDAGMPAVRLVVLDTAVALTIWPSGQGPNDDASVKRLLAYMQALAEKHDVTIAFIGHNNKRSSQNTEHFEDMVAGAGAWVTSPRVAFVHARDRREENSYVMRLAKPQLTPRFLVTYKTEPVHTLAQREDAPASVLCRVALGDEYIWGEDESASVFDAATGKDTEEDSGHVLEQRATTVQQVIDALVQMVHMTNAGQDVTRDMVHSALHRIVNGRRWKDVDDRLYMAQFQYRIAIVRGPNNQVLYRKMGPAEGHHHHHH | soluble
11 | MELIQDTSRPPLEYVKGVPLIKYFAEALGPLQSFQARPDDLLINTYPKSGTTWVSQILDMIYQGGDLEKCNRAPIYVRVPFLEVNDPGEPSGLETLKDTPPPRLIKSHLPLALLPQTLLDQKVKVVYVARNPKDVAVSYYHFHRMEKAHPEPGTWDSFLEKFMAGEVSYGSWYQHVQEWWELSRTHPVLYLFYEDMKENPKREIQKILEFVGRSLPEETMDFMVQHTSFKEMKKNPMTNYTTVPQELMDHSISPFMRKGMAGDWKTTFTVAQNERFDADYAEKMAGCSLSFRSEL | soluble
12 | AAEVGDDFLGDFVVGERVWVNGVKPGVVQYLGETQFAPGQWAGVVLDDPVGKNDGAVGGVRYFECPALQGIFTRPSKLTRQP | soluble
13 | MEAHGSARLSRKRKRDGSNGEPEEGEKPLKFKRCTVGLKYPAPYADQLESMEDKQYQRVTIEEARRGTPPDRPVRVYADGIFDMFHSGHARALMQAKCLFPNTHLIVGVCSDDLTHKLKGFTVMNEDERYDAVSHCRYVDEVVRNAPWTLTPEFLTKHRIDFVAHDDIPYSSADSDDVYKHIKDAGMFAPTQRTEGISTSDIITRIVRDYDVYVRRNLQRGYTAKELNVSFINEKKYNLQERVDKVKKKVKDVEEKSKEFVQKVEEKSIDLIQKWEEKSREFIGNFLQMFGPEGALKHMLKEGKGRMLQAISPRQSPSSSPTRERSPSPTFRLPFFNKTSTPSSPSSHHSSALSGYTYAARGQAISEDEEDDED | soluble
14 | MGEAPAVLVDHPENGHSNGVCVKSEPENTEITVDVGDRIFLIGGTHERNNFSIGVQIYDKISNNWFSPIVLGTGPKPSKGYSAFVLEQGRILVIKKGSPRNDSIWFLEVDSPYVREQKKLLRKEVVAWSKGVRGNAEKPIVISGPSGVGKGTLISMLMKEFPSMFGFSVSHTTRSPRSMEMDGVHYHFADKKVMEKEIKDGKFLEFASVHGNLYGTSIESVEAVTDSGKRCILDIDVQGARSVRASSLDAIFIFVCPPSMKELEDRLRARGTETEEQIQKRLRNAEAEIKEGISSGIFGLILYNDNLEECYKKLKNLLGLDGLAHVNGVEIEGINLPIEYAVSKMEDKIIIQETGKETRNKIVVDISSLNGGAPGRTRGILVDAIKF | soluble
15 | MGRQAMKKFVDVSHTIENGLITYKGLPAPIICDYLSREESRSFYEPGTEFQIGKIEMVTNTGTYIDVPFHRYADGKDLSEATVEQMAGLEGVVIPVDKHVKKIDVDVFKSADLHGKAVLIYTGWDEHWNTERYFEDHPYVTEEAANYLKEQKVALVGIDSHNIDDTSGKRRPVHTILLRADILIVEHLCKLGQLVDQSFLFYAVAPKFKGAGTFPVRAFAEIVLEHHHHHH | soluble
16 | MASDDEEDFTQLQINQNRKHKKAGGWQQIGLDHSVYKAIEKKGFNQPTPIQRKTIPCIMDGKDVVAMSRTGSGKTAAFVIPMLQKLKRRDTTGIRALMVSPTRELALQTFKVVKELGRFTGLRCACLVGGDQIEEQFSTIHENPDILLATPGRLLHVIVEMDLRLSYVQYVVFDEADRLFEMGFQDQLTETLKRIPESRQTLLFSATLPKMLVDFAKAGLTDPMLVRLDVDEKVSDKLSMVFCMCRPDEKLFALLHLCRNFCFKKLLETSLKKCKISKKKVPLLKKVRMDRENKQTVVFCATMKHVEYVVGILHRAGIDCSFVYSQLDATARKMNIQKFHEKQNNILVVTDVAARGVDIPLLDTVINLHFPPKAKLFVHRVGRVARAGRSGTAISLIANDELPYLTDLFMFLGKPINFASDKSEYKEDETLIGRVPDSIVSLETEFFHSIHDNNEDMQDLRQKATNAMMKYTRTRPPPSAESARRVKQDIRTDSVECAPHPFLKADGDKQSNDILNKISQYKSRNTIFEMNKSQKSQALAVMQAKRKAHEPRISTVTEEKRKQKEEKEQQQKSTDIAVEIAEKTVENAGEDELAEVFGTVIGSTKHTEKSEEKGGKKRKIGTGKRIDRAEQMKFEREKHYVPYMSSDHVAERHLALDTVDFARQAEGASVDIIMDDDRGMYQQKHGQRWDRRLKKYVGLSGGNEPANKKIRTEDGTWLPASYKTGKYEDWKQKQKIGFKKSDGGGDDGDNEGSGGMDRKRKWKMEKPKGGPKHSELKNKEQILKGRRKQEQLENYMEHRRQSNLKKKAEHLGRGGAGGARGGARGGARGGARGGSSRGARGGARGGGKFGNRR | not soluble
17 | MSIKLFSLAKELNVGVGSLAGFLRKKGFDVEDNNPNVRIENEEFDLLLTEFGKSLPKGEAERIRKKFVKQKQGTPASAPSAKEETAGMAAKEAQVIATEVPQDMRPRFTIKGKVETEKPAEPVPSPKDKEPDTVREDKPARETAPVKEETKVVPVKEDKPKEEKPKQEEPKREEPKPEEPVQAAPVAKPVEKPVDKPQQPVMTQKPQEAETPPPAQEMEKKEDTEEVFRLKTNTQEPQVKVVGKIDLSSINSSTRPKKKTKEDRQREQNDADGKKKRKRINKAAVDVKKEAAKVSGEQGKRNAGGGNHSSGNKNNNRPAQQQSNASGGRKNNKRQSLPPKVEISDEDVQRQVKETLARLTTKKTSTTLGRGAKYRKDKRDAASRAAQDAMELNSEEQHTLKLTEFVTVSDLSNMMDVPVNEVIATCMSIGMMVGINQRLDAETINIVAEEFGFKTEFVSADLVEAIAPEEDNEEDLVA | not soluble
18 | MGSDKIHHHHHHMNLATSERAQLATLLLEKGPNFPTLCGDWNTQELAAHLLIRESRPWIAAGMFLPGGSRIVADAMRKITQQPFEHVVAQWMKGPKWGYLGRYLDSVANRIEHFVHHEDVRRGETTVGQWQNLDLLPCNAKPRVLSERHSGELYDAMRWVAPLLLRRSACPVVIEPIGFPRLVVADAGVVSTRGDCVVHVRGDIGEVVLWILGRNQVDLFVDGPTHLLKKSSL | not soluble
19 | MKPENKIPVLTRLSDEMTAVVNFQQPGLPPWPADGDIETQRQYYLLERRFWNADAPSMTTRTCAVPTPYGDVTTRLYSPQPTSQATLYYLHGGGFILGNLDTHDRIMRLLARYTGCTVIGIDYSLSPQARYPQAIEETVAVCSYFSQHADEYSLNVEKIGFAGDSAGAMLALASALWLRDKHIRCGNVIAILLWYGLYGLQDSVSRRLFGGAWDGLTREDLDMYEKAYLRNDEDRESPWYCLFNNDLTRDVPPCFIASAEFDPLIDDSRLLHQTLQAHQQPCEYKMYPGTLHAFLHYSRMMTIADDALQDGARFFMARMKTPR | not soluble
20 | MGSDKIHHHHHHASSCGDECPVEQPYSVRVSVKDKNYLNISQFPQLSQVDENLPFRTYAGTLYYALYDASTGALIRESAVVSTEGEEKEYTLTFPGVPDGDYKLAVWGNLTTDYPAGILHQDGKEHTDIYVTSGDLHFSPDYQTEELTLERTKGKLLLLCSNFPSEITRIEQNVSHVYQSTDAGLNYSGSTQVDKNVPFTSVLETLLAPTSAEGHSKLTLTFYTGGTRASETPYLKLPVMEMDMRRNEITAVSIDYNTSEGIWEIKMFIRGEWITIHRLDIF | not soluble
